Test results: patent publication US20180134765A1 (AVIDBIOTICS, published 2018)

Columns and labels:
[1] = target: T1, human NKG2D-Fc (human, UniProt P26718 78-216, limits assumed); experiment: phage ELISA: phage-displayed ULBP3 α1-α2 variant titrated against NKG2D (the legend gives no form; Example 5 selected on human NKG2D-Fc)
T1 construct: also called natural NKG2D-Fc; not shown: Fc part
T1 sequence (looked up): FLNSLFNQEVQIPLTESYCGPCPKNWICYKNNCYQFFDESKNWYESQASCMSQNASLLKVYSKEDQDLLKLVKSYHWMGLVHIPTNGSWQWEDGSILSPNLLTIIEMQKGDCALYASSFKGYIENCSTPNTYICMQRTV

[2] = target: T2, Y152A NKG2D-Fc (human, UniProt P26718 78-216); experiment: phage ELISA: phage clone titrated against Y152A NKG2D
T2 construct: Biotinylated for the phage selections; also called non-natural Y152A NKG2D; not shown: Fc part; not described
T2 sequence (looked up): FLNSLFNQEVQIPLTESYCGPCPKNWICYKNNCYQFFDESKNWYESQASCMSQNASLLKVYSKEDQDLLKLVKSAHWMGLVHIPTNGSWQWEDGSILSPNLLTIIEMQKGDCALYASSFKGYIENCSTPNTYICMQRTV

[3] = target: T1, human NKG2D-Fc; experiment: ELISA: protein captured on FGFR3 detected with NKG2D-Fc
[4] = target: T3, FGFR3 (plate-coated) (UniProt P22607 23-375); experiment: ELISA: FGFR3 coated at 2 ug/ml, protein titrated, bound protein detected with NKG2D-Fc and anti-Fc-HRP
T3 construct: also called Fibroblast Growth Factor Receptor 3
T3 sequence (looked up): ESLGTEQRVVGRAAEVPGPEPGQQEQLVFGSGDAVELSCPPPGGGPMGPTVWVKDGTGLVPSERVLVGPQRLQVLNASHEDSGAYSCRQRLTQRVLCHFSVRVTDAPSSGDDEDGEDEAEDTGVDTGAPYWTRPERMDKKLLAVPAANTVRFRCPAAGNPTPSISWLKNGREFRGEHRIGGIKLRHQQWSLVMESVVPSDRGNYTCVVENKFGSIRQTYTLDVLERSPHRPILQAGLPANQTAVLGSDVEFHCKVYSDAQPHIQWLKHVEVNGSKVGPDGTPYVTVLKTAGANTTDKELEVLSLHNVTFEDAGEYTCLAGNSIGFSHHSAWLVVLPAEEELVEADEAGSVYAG

[5] = target: T1, human NKG2D-Fc; experiment: phage ELISA: phage-displayed ULBP2 α1-α2 variant titrated against NKG2D (the legend gives no form; Example 5 selected on human NKG2D-Fc)
[6] = target: T3, FGFR3 (plate-coated); experiment: ELISA: FGFR3 coated at 2 ug/ml, protein titrated, bound protein detected with NKG2D-Fc and anti-Fc-HRP; remark: listed apart in the source
[7] = target: T4, biotinylated human NKG2D (Example 3) (human, UniProt P26718 78-216, limits assumed, biotinylated (site not stated)); experiment: biolayer interferometry (Octet), Kd = kOFF/kON
T4 construct: also called recombinant biotinylated NKG2D; surface coated biotinylated human NKG2D
T4 sequence (looked up): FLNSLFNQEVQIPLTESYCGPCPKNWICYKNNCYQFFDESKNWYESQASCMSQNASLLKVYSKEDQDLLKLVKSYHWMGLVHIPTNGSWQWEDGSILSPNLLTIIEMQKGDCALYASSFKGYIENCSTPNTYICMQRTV

[8] = target: T4, biotinylated human NKG2D (Example 3); experiment: biolayer interferometry (Octet), biotinylated human NKG2D on the surface, 100 nM analyte
[9] = target: T3, FGFR3 (plate-coated); experiment: ELISA on FGFR3-coated wells after 1 h at 70 C and 1 h at room temperature
[10] = target: T3, FGFR3 (plate-coated); experiment: ELISA on FGFR3-coated wells after 1 h at 80 C and 1 h at room temperature
[11] = target: T5, murine NKG2D-Fc (mouse, UniProt O54709 94-232, limits assumed); experiment: competition ELISA: variant titrated against mouse NKG2D-Fc binding to plate-coated MICA (competitor), detected with anti-Fc-HRP
T5 construct: also called mouse NKG2D-Fc; not shown: Fc part; not described
T5 sequence (looked up): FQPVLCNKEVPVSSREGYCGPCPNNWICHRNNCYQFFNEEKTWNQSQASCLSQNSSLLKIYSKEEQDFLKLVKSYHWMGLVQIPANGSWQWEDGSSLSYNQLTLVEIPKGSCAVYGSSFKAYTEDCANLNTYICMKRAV

[12] = target: T6, NKG2D on NKL cells (human, UniProt P26718 1-216); experiment: cell-based or functional assay
T6 sequence (looked up): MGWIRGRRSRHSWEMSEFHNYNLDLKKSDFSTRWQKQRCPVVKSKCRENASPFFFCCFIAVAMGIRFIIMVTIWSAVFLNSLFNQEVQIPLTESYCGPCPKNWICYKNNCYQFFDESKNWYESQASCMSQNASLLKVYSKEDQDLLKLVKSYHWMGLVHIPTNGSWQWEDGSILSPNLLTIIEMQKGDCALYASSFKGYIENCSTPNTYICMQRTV

B1: ULBP3 R162G α1-α2 domain (phage-displayed library parent) (ligand)
chain: AAEPHSLWYNFTIIHLPRHGQQWCEVQSQVDQKNFLSYDCGSDKVLSMGHLEEQLYATDAWGKQLEMLREVGQRLRLELADTELEDFTPSGPLTLQVRMSCESEADGYIRGSWQFSFDGRKFLLFDSNNRKWTVVHAGARRMKEKWEKDSGLTTFFKMVSMGDCKSWLRDFLMHRKKRLEPTAP
binding result [1]: binds

B2: MICA25.17 (ligand)
chain: EPHSLRYNLTVLSWDGSVQSGFLTEVHLDGQPFLRCDRQKCRAKPQGQWAEDVLGNKTWDRETRDLTGWGTTLLMTLAHIKDQKEGLHSLQEIRVCEIHEDNSTRSSQHFYYDGELFLSQNLETLEWTMPQSSRAQTLAMNVRNFLKEDAMETDIGYRLMRADCLSELRRYLKSGVVLRRTV
notes: Tested as phage clone (M13 pIII fusion)
EC50 (read off the curve) [2]: ~0.005 phage OD

B3: MICA25.18 (ligand)
chain: EPHSLRYNLTVLSWDGSVQSGFLTEVHLDGQPFLRCDRQKCRAKPQGQWAEDVLGNKTWDRETRDLTGWGTFLRMTLAHIKDQKEGLHSLQEIRVCEIHEDNSTRSSQHFYYDGELFLSQNLETLEWTMPQSSRAQTLAMNVRNFLKEDAMETDRSGLLMRADCLSELRRYLKSGVVLRRTV
notes: as for B2
EC50 (read off the curve) [2]: ~0.01 phage OD

B4: MICA-α3-iFv.1 (designed binder)
chain: EPHSLRYNLTVLSWDGSVQSGFLTEVHLDGQPFLRCDRQKCRAKPQGQWAEDVLGNKTWDRETRDLTGNGKDLRMTLAHIKDQKEGLHSLQEIRVCEIHEDNSTRSSQHFYYDGELFLSQNLETKEWTMPQSSRAQTLAMNVRNFLKEDAMKTKTHYHAMHADCLQELRRYLKSGVVLRRTVPPMVQVTRSEASGDRVTITCRASQDVSTAVAWYQQKPGKAPKLLIYSASFLYSGVPSRFSGSGSGTDFTLTISSLQPEDFATYYCQQSYTTPPTFGQGTKVEIKGGSSRSSSSGGGGSGGGGEVQLVESGGGLVQPGGSLRLSCAASGFTFTSTGISWVRQAPGKGLEWVGRIYPTNGSTNYADSVKGRFTISADTSKNTAYLQMNSLRAEDTAVYYCARTYGIYDLYVDYTEYVMDYWGQGTLVTVSSGGSSRSSSSGGGGSGGGGDIQMTQSPSSLSASGQITVTCRASGFYPWNITLSWRQDGVSLSHDTQQWGDVLPDGQGTYQTWVATRISQGEEQRFTCYMEHSGQHSTHPVPSGKGSHHHHHH
notes: His-tagged, monomeric, made in insect cells; also called sMICA-α3-iFv.1
binding result [3]: binds | EC50 (read off the curve) [4]: ~1 nM

B5: V151D (ligand)
α1-α2 domain, fused to pIII of M13 phage: AAEPHSLSYDITVIPKFRPGPRWCAVQGQVDEKTFLHYDCGNKTVTPVSPLGKKLNVTTAWKAQNPVLREVVDILTEQLRDIQLENYTPKEPLTLQARMSCEQKAEGHSSGSWQFSFDGQIFLLFDSEKRMWTTVHPGARKMKEKWENDKDVAMSFHYFSMGDCIGWLEDFLMGMDSTLEPSAGAP
EC50 (read off the curve) [5]: ~0.01 OD268 (phage)

B6: ULBP2-α3-iFv.2 (designed binder)
chain: EPHSLCYDITVIPKFRPGPRWCAVQGQVDEKTFLHYDCGNKTVTPVSPLGKKLNVTTAWKAQNPVLREVVDILTEQLRDIQLENYTPKEPLTLQARMSCEQKAEGHSSGSWQFSFDGQIFLLFDSEKRMWTTVHPGARKMKEKWENDKVVAMSFHYFSMGDCIGWLEDFLMGMDSTLEPSAGAPPMVQVTRSEASGGSGDRVTITCRASQDVSTAVAWYQQKPGKAPKLLIYSASFLYSGVPSRFSGSGSGTDFTLTISSLQPEDFATYYCQQSYTTPPTFGQGTKVEIKGGSSRSSSSGGGGSGGGGEVQLVESGGGLVQPGGSLRLSCAASGFTFTSTGISWVRQAPGKGLEWVGRIYPTNGSTNYADSVKGRFTISADTSKNTAYLQMNSLRAEDTAVYYCARTYGIYDLYVDYTEYVMDYWGQGTLVTVSSGGSSRSSSSGGGGSGGGGDIQMTQSPSSLSASGGSGQITVTCRASGFYPWNITLSWRQDGVSLSHDTQQWGDVLPDGQGTYQTWVATRISQGEEQRFTCYMEHSGQHSTHPVPSGKGSHHHHHH
notes: His-tagged, monomeric, insect cells; also called NKG2DL-α3-iFv.2 (ULBP2)
EC50 (read off the curve) [6]: ~2 nM | binding result [3]: binds

B7: WED-MICA (ligand)
chain: EPHSLRYNLTVLSWDGSVQSGFLTEVHLDGQPFLRCDRQKCRAKPQGQWAEDVLGNKTWDRETRDLTGWGKDLRMTLAHIKDQKEGLHSLQEIRVCEIHEDNSTRSSQHFYYDGELFLSQNLETKEWTMPQSSRAQTLAMNVRNFLKEDAMETDTHYHAMHADCLQELRRYLKSGVVLRRTVPPMVQVTRSEASGGSGDRVTITCRASQDVSTAVAWYQQKPGKAPKLLIYSASFLYSGVPSRFSGSGSGTDFTLTISSLQPEDFATYYCQQSYTTPPTFGQGTKVEIKGGSSRSSSSGGGGSGGGGEVQLVESGGGLVQPGGSLRLSCAASGFTFTSTGISWVRQAPGKGLEWVGRIYPTNGSTNYADSVKGRFTISADTSKNTAYLQMNSLRAEDTAVYYCARTYGIYDLYVDYTEYVMDYWGQGTLVTVSSGGSSRSSSSGGGGSGGGGDIQMTQSPSSLSASGGSGQITVTCRASGFYPWNITLSWRQDGVSLSHDTQQWGDVLPDGQGTYQTWVATRISQGEEQRFTCYMEHSGQHSTHPVPSGKGSHHHHHH
notes: also called WED-α1-α2 domains; WED soluble MICA protein
apparent Kd (pooled screen) [7]: 5.9 nM | apparent koff (pooled screen) [8]: 0.0017 s⁻¹ | apparent kon (pooled screen) [8]: 290000 M⁻¹ s⁻¹

B8: MICA-α3-iFv.2 (designed binder)
chain: EPHSLRYNLTVLSWDGSVQSGFLTEVHLDGQPFLRCDRQKCRAKPQGQWAEDVLGNKTWDRETRDLTGNGKDLRMTLAHIKDQKEGLHSLQEIRVCEIHEDNSTRSSQHFYYDGELFLSQNLETKEWTMPQSSRAQTLAMNVRNFLKEDAMKTKTHYHAMHADCLQELRRYLKSGVVLRRTVPPMVQVTRSEASGGSGDRVTITCRASQDVSTAVAWYQQKPGKAPKLLIYSASFLYSGVPSRFSGSGSGTDFTLTISSLQPEDFATYYCQQSYTTPPTFGQGTKVEIKGGSSRSSSSGGGGSGGGGEVQLVESGGGLVQPGGSLRLSCAASGFTFTSTGISWVRQAPGKGLEWVGRIYPTNGSTNYADSVKGRFTISADTSKNTAYLQMNSLRAEDTAVYYCARTYGIYDLYVDYTEYVMDYWGQGTLVTVSSGGSSRSSSSGGGGSGGGGDIQMTQSPSSLSASGGSGQITVTCRASGFYPWNITLSWRQDGVSLSHDTQQWGDVLPDGQGTYQTWVATRISQGEEQRFTCYMEHSGQHSTHPVPSGKGSHHHHHH
notes: His-tagged, monomeric, made in insect cells; also called sMICA-α3-iFv.2
EC50 (read off the curve) [9]: ~5 nM | EC50 (read off the curve) [4]: ~2 nM | EC50 (read off the curve) [10]: ~5 nM

B9: α1-α2 variant 18 (ligand)
chain: EPHSLRYNLTVLSWDGSVQPGFLTEVHLDGQPFLRCDRQKCRAKPQGQWAEDVLGNKTWDRETRDLTLWGKDLRMTLAHIKDQKEGLHSLQEIRVCEIHEDNSTRSSQHFYYDGELFLSQNLETLEWTMPQSSRAQTLAMNVRNFLKEDAMETDTHYHAMRADCLQELRRYLKSGVVLRRTVPPMVQVTRSEASGGSGDRVTITCRASQDVSTAVAWYQQKPGKAPKLLIYSASFLYSGVPSRFSGSGSGTDFTLTISSLQPEDFATYYCQQSYTTPPTFGQGTKVEIKGGSSRSSSSGGGGSGGGGEVQLVESGGGLVQPGGSLRLSCAASGFTFTSTGISWVRQAPGKGLEWVGRIYPTNGSTNYADSVKGRFTISADTSKNTAYLQMNSLRAEDTAVYYCARTYGIYDLYVDYTEYVMDYWGQGTLVTVSSGGSSRSSSSGGGGSGGGGDIQMTQSPSSLSASGGSGQITVTCRASGFYPWNITLSWRQDGVSLSHDTQQWGDVLPDGQGTYQTWVATRISQGEEQRFTCYMEHSGQHSTHPVPSGKGSHHHHHH
IC50 (read off the curve) [11]: ~1 nM | NK cell-mediated lysis of FGFR3-expressing P815 target cells (calcein release, NKL cells) [12]: ~15 fold more killing than WT at 0.78 nM
